Test results: patent publication US10889805B2, “Intestinal epithelioid cells” (National Institutes of Biomedical Innovation, Health and …, priority 2015, dated 2021)

Assays:
ANPEP = ANPEP expression by quantitative real-time RT-PCR in cells differentiating from human iPS cells to enterocyte-like cells; type: cell-based; conditions: compound added with BIO and DAPT, 5 days culture; versus control without the compounds; FIG. 2B
Experimental: (§1) The definitive endoderm cells generated from the human iPS cell line (Tic) by the method described in Example 1 above were further cultured for 15 days using the medium 3. During a period from day 4 to day 19 after the initiation of differentiation induction, BIO (5 μM) and DAPT (10 μM) were added to the culture system. Simultaneously with the addition of the BIO and the DAPT, the cells were further cultured for 5 days using the medium 3 supplemented with any one of phorbol-myristate-acetate (PMA), transforming growth factor β1 (TGEβ1), Wortmannin, Noggin, SB431542, Follistatin, EGF, R-spondin1, Pentagastrin, or Wnt3a (FIG. 2A and FIG. 3A).
(§2) With regard to the measurement of the enterocyte markers ANPEP and VILLIN, each of the enterocyte markers was measured by a quantitative real-time RT-PCR method using SYBR Green gene expression assays (APPLIED BIOSYSTEMS). […] Thus, high expressions of ANPEP and VILLIN were found when the cells were cultured in the system containing SB431542, EGF, or Wnt3a.
(§3) The quantitative real-time RT-PCR was performed by the following method. […] A quantitative real-time RT-PCR method using SYBR Green gene expression assays (APPLIED BIOSYSTEMS) was performed, and quantification was performed with STEPONEPLUS real-time PCR System (APPLIED BIOSYSTEMS).

VILLIN = VILLIN expression by quantitative real-time RT-PCR in cells differentiating from human iPS cells to enterocyte-like cells; type: cell-based; conditions: compound added with BIO and DAPT, 5 days culture; versus control without the compounds; FIG. 3B
Experimental: as §1, §2, §3

B1: Wnt3a (protein, UniProt P56704 19-352, looked up)
Protein Wnt-3a: SYPIWWSLAVGPQYSSLGSQPILCASIPGLVPKQLRFCRNYVEIMPSVAEGIKIGIQECQHQFRGRRWNCTTVHDSLAIFGPVLDKATRESAFVHAIASAGVAFAVTRSCAEGTAAICGCSSRHQGSPGKGWKWGGCSEDIEFGGMVSREFADARENRPDARSAMNRHNNEAGRQAIASHMHLKCKCHGLSGSCEVKTCWWSQPDFRAIGDFLKDKYDSASEMVVEKHRESRGWVETLRPRYTYFKVPTERDLVYYEASPNFCEPNPETGSFGTRDRTCNVSSHGIDGCDLLCCGRGHNARAERRREKCRCVFHWCCYVSCQECTRVYDVHTCK
notes: humoral factor added to the culture system
expression of ANPEP (ANPEP): high value
expression of VILLIN (VILLIN): high value
